We go through five molecules from publication PMC10530651, “Mechanisms of Regulation of the CHRDL1 Gene by the TWIST2 and ADD1/SREBP1c Transcription Factors”.

Where a chain is given by its changes, count along the chain named.

For series [1], the target named is T1, TWIST2 (Homo sapiens, UniProt Q8WVJ9 1-160).
T1 sequence: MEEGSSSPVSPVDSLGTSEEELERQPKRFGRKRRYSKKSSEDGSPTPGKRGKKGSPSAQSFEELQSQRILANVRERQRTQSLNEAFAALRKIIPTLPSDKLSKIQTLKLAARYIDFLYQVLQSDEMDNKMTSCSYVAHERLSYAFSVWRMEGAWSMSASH
Nature of the series: EMSA; EMSA: 20 mM HEPES pH 7.9, 60 mM KCl, 1 mM MgCl2, 0.5 mM DTT, 10% glycerol, 10 µL with 1-3 µL TnT lysate; competitor at least 50x molar excess; 6% native gel, 0.5X TBE, 4 °C; binding temperature not stated. Conditions: protein: ivt; tags: N-terminal Myc; chain copies: 2; label: 32P as probe; blunt. (In general: In EMSA bound probe runs differently from free probe, usually more slowly.)

Series [2] deals with T2, ADD1/SREBP1c (rat, UniProt P56720-1 1-403).
T2 sequence: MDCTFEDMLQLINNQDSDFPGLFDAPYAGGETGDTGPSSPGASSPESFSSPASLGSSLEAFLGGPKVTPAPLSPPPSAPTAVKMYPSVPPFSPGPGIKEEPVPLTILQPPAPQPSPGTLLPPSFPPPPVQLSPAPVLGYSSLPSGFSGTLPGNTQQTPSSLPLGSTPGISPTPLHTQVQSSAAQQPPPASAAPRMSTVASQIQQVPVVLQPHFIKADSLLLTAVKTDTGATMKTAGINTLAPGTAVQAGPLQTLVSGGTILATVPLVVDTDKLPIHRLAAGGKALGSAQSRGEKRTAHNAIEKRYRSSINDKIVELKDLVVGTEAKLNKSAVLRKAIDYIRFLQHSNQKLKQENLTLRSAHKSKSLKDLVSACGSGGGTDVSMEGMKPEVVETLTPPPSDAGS
The description is as above. The settings on record: protein: ivt; tags: C-terminal Myc/His; chain copies: 2; label: 32P as probe; blunt.

In series [3] the target is T2, ADD1/SREBP1c. Nature of the series: competition; vs labeled CH2700EA; EMSA: 20 mM HEPES pH 7.9, 60 mM KCl, 1 mM MgCl2, 0.5 mM DTT, 10% glycerol, 10 µL with 1-3 µL TnT lysate; competitor at least 50x molar excess; 6% native gel, 0.5X TBE, 4 °C; binding temperature not stated. Conditions: protein: ivt; tags: C-terminal Myc/His; chain copies: 2; blunt.
The target of series [4] is T1, TWIST2. Described as above. The settings on record: protein: ivt; tags: N-terminal Myc; chain copies: 2; blunt.
Series [5] deals with T1, TWIST2. Nature of the series: EMSA; competition; EMSA: 20 mM HEPES pH 7.9, 60 mM KCl, 1 mM MgCl2, 0.5 mM DTT, 10% glycerol, 10 µL with 1-3 µL TnT lysate; competitor at least 50x molar excess; 6% native gel, 0.5X TBE, 4 °C; binding temperature not stated. The settings on record: protein: ivt; tags: N-terminal Myc; chain copies: 2; label: 32P as probe; blunt.
Series [6] has as its target T2, ADD1/SREBP1c. The series is described as above. Conditions: protein: ivt; tags: C-terminal Myc/His; chain copies: 2; label: 32P as probe; blunt.
The target in series [7] is T3, TWIST1 (Homo sapiens, UniProt Q15672 1-202). The experiment in a line: EMSA; EMSA: 20 mM HEPES pH 7.9, 60 mM KCl, 1 mM MgCl2, 0.5 mM DTT, 10% glycerol, 10 µL with 1-3 µL TnT lysate; competitor at least 50x molar excess; 6% native gel, 0.5X TBE, 4 °C; binding temperature not stated. The settings on record: protein: ivt; tags: Myc; chain copies: 2; label: 32P as probe; blunt.

Series [8] addresses T3, TWIST1. Nature of the series: competition; vs labeled probe #5; EMSA: 20 mM HEPES pH 7.9, 60 mM KCl, 1 mM MgCl2, 0.5 mM DTT, 10% glycerol, 10 µL with 1-3 µL TnT lysate; competitor at least 50x molar excess; 6% native gel, 0.5X TBE, 4 °C; binding temperature not stated. Conditions: protein: ivt; tags: Myc; chain copies: 2; blunt.
For series [9], the target named is T1, TWIST2. Described as above. The settings on record: protein: ivt; tags: N-terminal Myc; chain copies: 2; blunt.

B1: CH2700EA (dsDNA)
DNA 1: TGGTGGTGGTCACATGAATATACACATGCGATAAAATT
DNA 2: AATTTTATCGCATGTGTATATTCATGTGACCACCACCA
For B1, the binding result in series [1] and in [2] was “binds” throughout.

B2: CH2700EWAM (dsDNA)
DNA 1: B1 DNA 1 with A24G, T27C
DNA 2: B1 DNA 2 with A12G, T15C
For the molecule B2, in series [3], the binding result was “binds”.

B3: CH2700EMAW (dsDNA)
DNA 1: B1 DNA 1 with A12G, T15C
DNA 2: B1 DNA 2 with A24G, T27C
As to B3, the binding result in series [4] and in [3] was “binds” each time.

B4: CH2600TWI (dsDNA)
DNA 1: TATATACACAGGCAAATGAGTGCATATAAA
DNA 2: TTTATATGCACTCATTTGCCTGTGTATATA
B4: the binding result in [5], in series [6] and in [7] was “no binding” throughout.

B5: SP1 oligo (dsDNA)
DNA 1: ATTCGATCGGGGCGGGGCGAGC
DNA 2: GCTCGCCCCGCCCCGATCGAAT
On to B5, for which the binding result in series [8] and in series [9] was “no binding” in each case.
